Data: US20200141935A1, “SYSTEM, METHOD, APPARATUS AND DIAGNOSTIC TEST FOR PREGNANCY” (BARCELONA INSTITUTE FOR GLOBAL HEALTH, priority 2017, published 2020)

Tests used:
IgG [1] = assay: Multiplex bead-based immunoassay: seroprevalence (finite mixture models or negative control cutoff); assay type: binding, pregnant women; conditions: for Seroprevalence MQ (%): IPTp with mefloquine; for Seroprevalence Non-A (%): non anemia
From the text: (§1) Two multiplex suspension array panels were constructed to quantify IgG responses against P. falciparum recombinant proteins and synthetic peptides, using the xMAP™ technology and the Luminex® 100/200™ System (Luminex® Corp., Austin, Tex.). MagPlex® microspheres (magnetic carboxylated polystyrene microparticles, 5.6 μm) with different spectral signatures were selected for each protein (DBL3X, DBL5ϵ, DBL6ϵ, AMA1 and MSP119), peptides (25 VAR2CSA peptides and pCSP), tetanus toxin and bovine serum albumin (BSA). Antigens were covalently coupled to beads following a modification of the Luminex® Corporation protocol. Protein and peptide multiplex arrays were prepared by pooling together equal volumes of coated beads. Plasma samples or the product of DBS elution were analyzed in duplicate at dilution 1:400 for the protein array and 1:100 for the peptide array. A hyperimmune plasma pool composed by 23 plasmas from malaria infected Mozambican pregnant women (HIP-VAR2CSA) was included in each assay plate, in addition to blanks (wells without sample) to assess background levels. A minimum of 50 microspheres were read per spectral signature and results were exported as crude median fluorescent intensity ([…]). Duplicates were averaged and background MFIs were subtracted. A total of 224 plates were analyzed and the intra-assay variation (mean CV of replicates from 20 plasma samples per plate) ranged from 1.4% to 7.3% for the protein array and from 2.5% to 12.4% for the peptide array. The inter-assay variation (variability of positive pool [HIP-VAR2CSA] between 224 plates) was 5% for the protein array and 26% for the peptide array. Results were normalized (nMFI) to account for plate-to-plate variation by […] the background subtracted MFI of each sample with the value of the positive pool in the same plate and dividing by the median of positive pools in all plates.
(§2) Antibodies were eluted from DBS from Gabon, […] and Kenya, as previously described. Briefly, to achieve a concentration of eluted blood proteins equivalent to a 1:50 plasma dilution antibodies were eluted from four spots of approximately 3 mm in diameter with 200 μl Luminex® assay buffer (1% BSA, 0.05% sodium azide in filtrated PBS [Phosphate-buffered saline]). […]. Controls blood drops were artificially prepared using fresh erythrocytes (blood type 0, assuming a hematocrit approximately of 50%) and freeze plasma from 49 Spanish pregnant women. Filter papers were stored avoiding humidity at −20° C. in Barcelona.
(§3) Presence or absence of antibodies was defined by finite mixture models (FMM) for pregnancy-specific antigens (VAR2CSA peptides and recombinant domains) and by the mean plus 3 standard deviation (SD) of IgG response from pregnant women from Barcelona for general malaria antigens (AMA1, MSP119, and pCSP).
(§4) Data was fitted to a normal distribution by logarithmic transformation of nMFIs. Participant's baseline characteristics and parasitological outcomes were compared between study times and areas by univariate analysis (Fisher's tests for binary outcomes or t-Student test for continuous outcomes). Responses were considered not restricted to malaria when seroprevalences were 5% or high among Spanish pregnant women.
Seroprevalences between countries (Benin, Gabon and Mozambique for HIV-uninfected and Kenya and Mozambique for HIV-infected), between IPTp intervention group (MQ vs SP for HIV-uninfected and MQ vs Placebo for HIV infected) and anemia status were compared by logistic regression models adjusted by parity, age and treatment.
The modification of the associations by HIV infection or parity was assessed by including interaction terms into the regression models.

IgG [2] = assay: Multiplex bead-based immunoassay (Luminex): IgG levels (nMFI) against antigens, compared between groups; assay type: binding, pregnant women
From the text: as §1, §2, §3, §4
Linear regression models were used to compare antibody levels from Mozambican and Spanish pregnant women. The capacity of antibody levels to mimic malaria trends in Mozambique was analyzed by linear regression models (2010 was compared with 2003-2005 corresponding to a trend of malaria decrease and 2011-2012 with 2010 to a trend of increase) adjusted by treatment, parity, age and HIV.
The impact of P. falciparum infection during pregnancy on antibodies at delivery was assessed in linear regression models adjusted by age, parity, HIV and treatment. Changes in antibody levels due to parasite density (below or above 200) were assessed by linear regression models adjusted by age, parity, HIV and treatment. […]

IgG [3] = assay: Antibody dynamics during pregnancy (time to double, half-life, sero-reversion) from bead-based immunoassay; assay type: binding, pregnant Mozambican women
From the text: as §1
The adjusted effect of infection on antibody levels was analyzed using log-linear mixed-effects regression models incorporating Gaussian random intercepts. […] Time to double the antibody levels (T2x) and half-lives were calculated in weeks from the estimated rates and the boundaries at 95% confidence interval obtained from mixed-effects models for subjects suffering a P. falciparum infection at follow-up independent of antibody status at recruitment (Ab[−or+]/Pf+) and subjects seropositive at recruitment and no infection detected on follow-up (Ab+/Pf−), respectively. In situations that the increase rate is a negative value (rate below 1) or the decay rate is a positive value (rate above 1), the calculated T2x or half-life was reported as infinity. Similarly, the time to sero-reversion was calculated for these subjects using the ratio of the seropositivity cutoff by the average antibody titers at recruitment as decay, i.e. how many times the average titers need to be reduced to be equal the cutoff.

B1: AMA1: recombinant apical membrane antigen 1, from 3D7 strain (protein)
chain: QNYWEHPYQNSDVYRPINEHREHPKEYEYPLHQEHTYQQEDSGEDENTLQHAYPIDHEGAEPAPQEQNLFSSIEIVERSNYMGNPWTEYMAKYDIEEVHGSGIRVDLGEDAEVAGTQYRLPSGKCPVFGKGIIIENSNTTFLTPVATGNQYLKDGGFAFPPTEPLMSPMTLDEMRHFYKDNKYVKNLDELTLCSRHAGNMIPDNDKNSNYKYPAVYDDKDKKCHILYIAAQENNGPRYCNKDESKRNSMFCFRPAKDISFQNYTYLSKNVVDNWEKVCPRKNLQNAKFGLWVDGNCEDIPHVNEFPAIDLFECNKLVFELSASDQPKQYEQHLTDYEKIKEGFKNKNASMIKSAFLPTGAFKADRYKSHGKGYNWGNYNTETQKCEIFNVKPTCLINNSSYIATTALSHPIEVENNFPCSLYKDEIMKEIERESKRIKLNDNDDEGNKKIIAPRIFISDDKDSLKCPCDPEMVSNSTCRFFVCKCVERRAEVTSNNEVVVKEEYKDEYADIPEHKPTYDKMK
B1 was tested, and the “SeroPrev Delivery %” value (IgG [1]; 239 pregnant Mozambican women followed 2011-2012) was 89%, the “Seroprevalence MQ (%)” value (IgG [1]; HIV infected) was 92% and the “Seroprevalence K (%)” value (IgG [1]; HIV infected, Kenya, at delivery) was 95%. The “MQ (OR)” value (IgG [1]; HIV infected, MQ, Placebo as reference) was 0.6 (0.32; 1.12), the “M (OR)” value (IgG [1]; HIV infected, Mozambique, Kenya as reference) was 0.76 (0.40; 1.45) and the “Seroprevalence M (%)” value (IgG [1]; HIV infected, Mozambique, at delivery) was 93%. For the same molecule, the “Seroprevalence PL (%)” value (IgG [1]; HIV infected, Placebo group) was 95%, the “Seroprevalence A (%)” value (IgG [1]; HIV infected, anemia) was 92% and the “A (OR)” value (IgG [1]; HIV infected, anemia, Non-A as reference) was 0.79 (0.41; 1.51). For the same molecule, the “Seroprevalence Non-A (%)” value (IgG [1]; HIV infected) was 94%, the “Seroprevalence B (%)” value (IgG [1]; HIV uninfected, Benin, at delivery) was 100% and the “Seroprevalence G (%)” value (IgG [1]; HIV uninfected, Gabon, at delivery) was 82%. The “Seroprevalence MQ (%)” value (IgG [1]; HIV uninfected) was 96%, the “Seroprevalence SP (%)” value (IgG [1]; HIV uninfected, IPTp with sulfadoxine-pyrimethamine) was 96% and the “Seroprevalence M (%)” value (IgG [1]; HIV uninfected, Mozambique, at delivery) was 93%. The “Seroprevalence A (%)” value (IgG [1]; HIV uninfected, anemia) was 96%, the “Seroprevalence Non-A (%)” value (IgG [1]; HIV uninfected) was 96% and the “Seroprevalence in Tanzania” value (IgG [1]; HIV-uninfected women, area of Tanzania where no malaria infection was observed) was 42%. For the same molecule, the “Seroprevalence 2003/4 (%)” value (IgG [1]; Mozambican pregnant women at delivery, 2003/4) was 99%, the “Seroprevalence 2005 (%)” value (IgG [1]; Mozambican pregnant women at delivery, 2005) was 98% and the “Seroprevalence 2010 (%)” value (IgG [1]; Mozambican pregnant women at delivery, 2010) was 93%. For the same molecule, the “Seroprevalence 2011 (%)” value (IgG [1]; Mozambican pregnant women at delivery, 2011) was 89%, the “Seroprevalence 2012 (%)” value (IgG [1]; Mozambican pregnant women at delivery, 2012) was 92% and the “SeroPrev PW Bcn (%)” value (IgG [1]; seroprevalence among pregnant Spanish women never exposed to malaria) was 2%. For the same molecule, the “Decrease (OR)” value (IgG [1]; seroprevalence odds ratio 2010 vs 2003/5, Mozambique, adjusted) was 0.24 (0.06; 0.93), the “Increase (OR)” value (IgG [1]; seroprevalence odds ratio 2011/12 vs 2010, Mozambique, adjusted) was 0.58 (0.29; 1.16) and the “Immunoreactivity: recognition by IgGs at levels above BSA recognition” value (IgG [2]; 641 pregnant Mozambican women 2003-2012, mean nMFI above mean BSA nMFI plus 3 SD) was “above BSA recognition”. The “Infection during pregnacy Infection vs no-infection ratio (95% CI)” value (IgG [2]; nMFI at delivery, Mozambican women followed 2011-2012, adjusted) was 1.8 (1.30; 2.50), the “Parity MG vs PG ratio (95% CI)” value (IgG [2]; nMFI at delivery, multigravid vs primigravid Mozambican women, adjusted) was 1.2 (0.76; 1.9) and the “Exposure dependence Increase 2011-2012 vs 2010 Ratio (95% CI)” value (IgG [2]; nMFI ratio at delivery, Mozambique, adjusted by parity, age, treatment and HIV) was 0.88 (0.73; 1.07). For the same molecule, the “PW Mz vs PW Bcn Ratio (95% CI)” value (IgG [2]; nMFI ratio, pregnant Mozambican women vs pregnant Spanish women (N=49)) was 24.51 (18.53; 32.43), the “Parasite density Low vs High ratio (95% CI)” value (IgG [2]; nMFI ratio, below or above 200 genomes per microliter, adjusted) was 1.18 (0.96; 1.46) and the “Antibody dynamics Sero-revertion weeks (95% CI)” value (IgG [3]; time to sero-negativisation, seropositive at recruitment, no infection on follow-up) was 544.49 (242.56; ∞) weeks. For the same molecule, the “Antibody dynamics Time to double weeks (95% CI)” value (IgG [3]; women with P. falciparum infection on follow-up, log-linear mixed-effects model) was 91.65 (39.61; ∞) weeks.
